Experimental data taken from the Human Domainome abundance scans (Beltran et al. 2025).
± gives the uncertainty stated by the source.

B1: Tumor protein p73, residues 487 to 549; numbered along this chain, O15350 (parent)
chain: YHADPSLVSFLTGLGCPNCIEYFTSQGLQSIYHLQNLTIEDLGALKIPEQYRMTIWRGLQDLK

Variants of: B1
Experiment: abundance fitness (aPCA) (normalised: wild type 0, dead -1); higher = more abundant; growth selection in yeast, the domain comes from the species named
Settings: Homo sapiens

YHADPSLVSFLTGLGCPNCIEYFTSLGLQSIYHLQNLTIEDLGALKIPEQYRMTIWRGLQDLK [Q26L] and YHADPSLVSFLTGLGCPNCIEYFTSMGLQSIYHLQNLTIEDLGALKIPEQYRMTIWRGLQDLK [Q26M] are within error of each other in abundance fitness: -0.199 ± 0.04 for the first, -0.207 ± 0.044 for the second.

First: YHADPSLVSFLTGLGCPNCIEYFTSNGLQSIYHLQNLTIEDLGALKIPEQYRMTIWRGLQDLK [Q26N]
Second: YHADPSLVSFLTGLGCPNCIEYFTSPGLQSIYHLQNLTIEDLGALKIPEQYRMTIWRGLQDLK [Q26P]
The abundance fitness of the first is higher: 0.109 ± 0.072 for the first, -0.204 ± 0.052 for the second.

YHADPSLVSFLTGLGCPNCIEYFTSRGLQSIYHLQNLTIEDLGALKIPEQYRMTIWRGLQDLK [Q26R] and YHADPSLVSFLTGLGCPNCIEYFTSSGLQSIYHLQNLTIEDLGALKIPEQYRMTIWRGLQDLK [Q26S] are within error of each other in abundance fitness: 0.001 ± 0.034 for the first, -0.004 ± 0.032 for the second.

Compared with YHADPSLVSFLTGLGCPNCIEYFTSTGLQSIYHLQNLTIEDLGALKIPEQYRMTIWRGLQDLK [Q26T], YHADPSLVSFLTGLGCPNCIEYFTSWGLQSIYHLQNLTIEDLGALKIPEQYRMTIWRGLQDLK [Q26W] is lower in abundance fitness: -0.082 ± 0.06 for the first, -0.286 ± 0.042 for the second.

YHADPSLVSFLTGLGCPNCIEYFTSYGLQSIYHLQNLTIEDLGALKIPEQYRMTIWRGLQDLK [Q26Y] and YHADPSLVSFLTGLGCPNCIEYFTSQALQSIYHLQNLTIEDLGALKIPEQYRMTIWRGLQDLK [G27A] are within error of each other in abundance fitness: -0.32 ± 0.098 for the first, -0.304 ± 0.075 for the second.

First: YHADPSLVSFLTGLGCPNCIEYFTSQCLQSIYHLQNLTIEDLGALKIPEQYRMTIWRGLQDLK [G27C]
Second: YHADPSLVSFLTGLGCPNCIEYFTSQDLQSIYHLQNLTIEDLGALKIPEQYRMTIWRGLQDLK [G27D]
The abundance fitness of the first is lower: -0.448 ± 0.059 for the first, 0.06 ± 0.044 for the second.

Going from YHADPSLVSFLTGLGCPNCIEYFTSQFLQSIYHLQNLTIEDLGALKIPEQYRMTIWRGLQDLK [G27F] to YHADPSLVSFLTGLGCPNCIEYFTSQHLQSIYHLQNLTIEDLGALKIPEQYRMTIWRGLQDLK [G27H], the abundance fitness rises from -1 ± 0.22 to -0.004 ± 0.053.

First: YHADPSLVSFLTGLGCPNCIEYFTSQKLQSIYHLQNLTIEDLGALKIPEQYRMTIWRGLQDLK [G27K]
Second: YHADPSLVSFLTGLGCPNCIEYFTSQLLQSIYHLQNLTIEDLGALKIPEQYRMTIWRGLQDLK [G27L]
The abundance fitness of the first is higher: -0.089 ± 0.043 for the first, -1.02 ± 0.1 for the second.

Compared with YHADPSLVSFLTGLGCPNCIEYFTSQMLQSIYHLQNLTIEDLGALKIPEQYRMTIWRGLQDLK [G27M], YHADPSLVSFLTGLGCPNCIEYFTSQNLQSIYHLQNLTIEDLGALKIPEQYRMTIWRGLQDLK [G27N] is higher in abundance fitness: -0.716 ± 0.069 for the first, -0.055 ± 0.22 for the second.

First: YHADPSLVSFLTGLGCPNCIEYFTSQPLQSIYHLQNLTIEDLGALKIPEQYRMTIWRGLQDLK [G27P]
Second: YHADPSLVSFLTGLGCPNCIEYFTSQQLQSIYHLQNLTIEDLGALKIPEQYRMTIWRGLQDLK [G27Q]
The abundance fitness of the first is lower: -0.367 ± 0.065 for the first, -0.05 ± 0.051 for the second.

YHADPSLVSFLTGLGCPNCIEYFTSQRLQSIYHLQNLTIEDLGALKIPEQYRMTIWRGLQDLK [G27R] and YHADPSLVSFLTGLGCPNCIEYFTSQSLQSIYHLQNLTIEDLGALKIPEQYRMTIWRGLQDLK [G27S] are within error of each other in abundance fitness: -0.024 ± 0.025 for the first, -0.07 ± 0.035 for the second.

Going from YHADPSLVSFLTGLGCPNCIEYFTSQTLQSIYHLQNLTIEDLGALKIPEQYRMTIWRGLQDLK [G27T] to YHADPSLVSFLTGLGCPNCIEYFTSQVLQSIYHLQNLTIEDLGALKIPEQYRMTIWRGLQDLK [G27V], the abundance fitness falls from -0.172 ± 0.075 to -0.61 ± 0.084.

Compared with YHADPSLVSFLTGLGCPNCIEYFTSQGCQSIYHLQNLTIEDLGALKIPEQYRMTIWRGLQDLK [L28C], YHADPSLVSFLTGLGCPNCIEYFTSQGDQSIYHLQNLTIEDLGALKIPEQYRMTIWRGLQDLK [L28D] is lower in abundance fitness: 0.021 ± 0.044 for the first, -0.261 ± 0.081 for the second.

Compared with YHADPSLVSFLTGLGCPNCIEYFTSQGEQSIYHLQNLTIEDLGALKIPEQYRMTIWRGLQDLK [L28E], YHADPSLVSFLTGLGCPNCIEYFTSQGFQSIYHLQNLTIEDLGALKIPEQYRMTIWRGLQDLK [L28F] is higher in abundance fitness: -0.177 ± 0.061 for the first, 0.175 ± 0.077 for the second.

Going from YHADPSLVSFLTGLGCPNCIEYFTSQGGQSIYHLQNLTIEDLGALKIPEQYRMTIWRGLQDLK [L28G] to YHADPSLVSFLTGLGCPNCIEYFTSQGHQSIYHLQNLTIEDLGALKIPEQYRMTIWRGLQDLK [L28H], the abundance fitness rises from -0.289 ± 0.032 to 0.083 ± 0.13.

YHADPSLVSFLTGLGCPNCIEYFTSQGIQSIYHLQNLTIEDLGALKIPEQYRMTIWRGLQDLK [L28I] and YHADPSLVSFLTGLGCPNCIEYFTSQGKQSIYHLQNLTIEDLGALKIPEQYRMTIWRGLQDLK [L28K] are within error of each other in abundance fitness: -0.041 ± 0.065 for the first, 0.005 ± 0.043 for the second.

Going from YHADPSLVSFLTGLGCPNCIEYFTSQGMQSIYHLQNLTIEDLGALKIPEQYRMTIWRGLQDLK [L28M] to YHADPSLVSFLTGLGCPNCIEYFTSQGNQSIYHLQNLTIEDLGALKIPEQYRMTIWRGLQDLK [L28N], the abundance fitness falls from 0.042 ± 0.051 to -0.241 ± 0.072.

Compared with YHADPSLVSFLTGLGCPNCIEYFTSQGPQSIYHLQNLTIEDLGALKIPEQYRMTIWRGLQDLK [L28P], YHADPSLVSFLTGLGCPNCIEYFTSQGQQSIYHLQNLTIEDLGALKIPEQYRMTIWRGLQDLK [L28Q] is higher in abundance fitness: -0.286 ± 0.069 for the first, -0.038 ± 0.042 for the second.

YHADPSLVSFLTGLGCPNCIEYFTSQGRQSIYHLQNLTIEDLGALKIPEQYRMTIWRGLQDLK [L28R] and YHADPSLVSFLTGLGCPNCIEYFTSQGSQSIYHLQNLTIEDLGALKIPEQYRMTIWRGLQDLK [L28S] are within error of each other in abundance fitness: -0.05 ± 0.027 for the first, -0.079 ± 0.035 for the second.

First: YHADPSLVSFLTGLGCPNCIEYFTSQGTQSIYHLQNLTIEDLGALKIPEQYRMTIWRGLQDLK [L28T]
Second: YHADPSLVSFLTGLGCPNCIEYFTSQGVQSIYHLQNLTIEDLGALKIPEQYRMTIWRGLQDLK [L28V]
The abundance fitness of the first is lower: -0.186 ± 0.046 for the first, -0.008 ± 0.028 for the second.

Compared with YHADPSLVSFLTGLGCPNCIEYFTSQGWQSIYHLQNLTIEDLGALKIPEQYRMTIWRGLQDLK [L28W], YHADPSLVSFLTGLGCPNCIEYFTSQGYQSIYHLQNLTIEDLGALKIPEQYRMTIWRGLQDLK [L28Y] is higher in abundance fitness: -0.16 ± 0.039 for the first, -0.058 ± 0.051 for the second.

In the case of YHADPSLVSFLTGLGCPNCIEYFTSQGLASIYHLQNLTIEDLGALKIPEQYRMTIWRGLQDLK [Q29A], the abundance fitness is reported as -0.047 ± 0.037.
